Where two headings read alike, the source gives them in different places.
T1: MMP2 (human, UniProt P08253 30-660)
T1 sequence (looked up): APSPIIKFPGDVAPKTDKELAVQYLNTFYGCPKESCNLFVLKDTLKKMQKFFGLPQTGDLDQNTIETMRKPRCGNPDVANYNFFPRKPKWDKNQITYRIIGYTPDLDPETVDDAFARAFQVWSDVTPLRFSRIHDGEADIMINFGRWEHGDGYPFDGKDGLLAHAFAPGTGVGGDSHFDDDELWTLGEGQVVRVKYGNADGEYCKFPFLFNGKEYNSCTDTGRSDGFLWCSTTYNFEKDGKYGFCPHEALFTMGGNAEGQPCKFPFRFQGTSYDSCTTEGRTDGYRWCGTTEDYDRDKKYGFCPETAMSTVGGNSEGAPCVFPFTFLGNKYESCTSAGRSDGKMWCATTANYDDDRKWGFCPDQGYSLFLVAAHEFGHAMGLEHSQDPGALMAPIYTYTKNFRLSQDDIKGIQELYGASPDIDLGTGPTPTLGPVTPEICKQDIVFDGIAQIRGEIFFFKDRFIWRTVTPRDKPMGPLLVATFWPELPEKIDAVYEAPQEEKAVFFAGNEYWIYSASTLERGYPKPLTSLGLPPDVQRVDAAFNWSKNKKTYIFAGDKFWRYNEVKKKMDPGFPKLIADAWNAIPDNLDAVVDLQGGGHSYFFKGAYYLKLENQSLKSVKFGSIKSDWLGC

B1: N-TIMP3 fused to Fc (Fc fusion, part only; not given: Fc carrier, unspecified, part only)
chain, part: CTCSPSHPQDAFCNSDIVIRAKVVGKKLVKEGPFGTLVYTIKQMKMYRGFTKMPHVQYIHTEASESLCGLKLEVNKYQYLLTGRVYDGKMYTGLCNFVERWDQLTLSQRKGLNYRYHLGCN
B2: N-TIMP3 (N-terminal TIMP-3 domain, AA 1-144) (other)
chain: CTCSPSHPQDAFCNSDIVIRAKVVGKKLVKEGPFGTLVYTIKQMKMYRGFTKMPHVQYIHTEASESLCGLKLEVNKYQYLLTGRVYDGKMYTGLCNFVERWDQLTLSQRKGLNYRYHLGCN
B3: TIMP-3 [K45N, V47T, P56N, G58T, K94N, E96T, R138T] (SEQ ID NO:4) (protein)
chain: CTCSPSHPQDAFCNSDIVIRANVTGKKLVKEGNFTTLVYTIKQMKMYRGFTKMPHVQYIHTEASESLCGLNLTVNKYQYLLTGRVYDGKMYTGLCNFVERWDQLTLSQRKGLNYTYHLGCNCKIKSCYYLPCFVTSKNECLWTDMLSNFGYPGYQSKHYACIRQKGGYCSWYRGWAPPDKSIINATDP
modifications: 4 engineered N-linked glycosylation sites (# EG, Table 2)
B4: TIMP-3 [K50N, V52T, K94N, E96T, D110N, K112T, R138T] (SEQ ID NO:16) (protein)
chain: CTCSPSHPQDAFCNSDIVIRAKVVGKNLTKEGPFGTLVYTIKQMKMYRGFTKMPHVQYIHTEASESLCGLNLTVNKYQYLLTGRVYNGTMYTGLCNFVERWDQLTLSQRKGLNYTYHLGCNCKIKSCYYLPCFVTSKNECLWTDMLSNFGYPGYQSKHYACIRQKGGYCSWYRGWAPPDKSIINATDP
modifications: 4 engineered N-linked glycosylation sites (# EG, Table 2)
B5: TIMP-3 [P56N, G58T, K94N, E96T, D110N, K112T, R138T] (SEQ ID NO:22) (protein)
chain: CTCSPSHPQDAFCNSDIVIRAKVVGKKLVKEGNFTTLVYTIKQMKMYRGFTKMPHVQYIHTEASESLCGLNLTVNKYQYLLTGRVYNGTMYTGLCNFVERWDQLTLSQRKGLNYTYHLGCNCKIKSCYYLPCFVTSKNECLWTDMLSNFGYPGYQSKHYACIRQKGGYCSWYRGWAPPDKSIINATDP
modifications: 4 engineered N-linked glycosylation sites (# EG, Table 2)
B6: TIMP-3 [K50N, V52T, K94N, E96T, D110N, K112T, R138T, G173T] (SEQ ID NO:17) (protein)
chain: CTCSPSHPQDAFCNSDIVIRAKVVGKNLTKEGPFGTLVYTIKQMKMYRGFTKMPHVQYIHTEASESLCGLNLTVNKYQYLLTGRVYNGTMYTGLCNFVERWDQLTLSQRKGLNYTYHLGCNCKIKSCYYLPCFVTSKNECLWTDMLSNFTYPGYQSKHYACIRQKGGYCSWYRGWAPPDKSIINATDP
modifications: 5 engineered N-linked glycosylation sites (# EG, Table 2)
B7: TIMP-3 [K45N, V47T, F57N, K94N, E96T, D110N, K112T] (SEQ ID NO:6) (protein)
chain: CTCSPSHPQDAFCNSDIVIRANVTGKKLVKEGPNGTLVYTIKQMKMYRGFTKMPHVQYIHTEASESLCGLNLTVNKYQYLLTGRVYNGTMYTGLCNFVERWDQLTLSQRKGLNYRYHLGCNCKIKSCYYLPCFVTSKNECLWTDMLSNFGYPGYQSKHYACIRQKGGYCSWYRGWAPPDKSIINATDP
modifications: 4 engineered N-linked glycosylation sites (# EG, Table 2)
B8: TIMP-3 [K50N, V52T P56N, G58T, K94N, E96T, D110N, K112T, R138T] (SEQ ID NO:14) (protein)
chain: CTCSPSHPQDAFCNSDIVIRAKVVGKNLTKEGNFTTLVYTIKQMKMYRGFTKMPHVQYIHTEASESLCGLNLTVNKYQYLLTGRVYNGTMYTGLCNFVERWDQLTLSQRKGLNYTYHLGCNCKIKSCYYLPCFVTSKNECLWTDMLSNFGYPGYQSKHYACIRQKGGYCSWYRGWAPPDKSIINATDP
modifications: 5 engineered N-linked glycosylation sites (# EG, Table 2)
B9: TIMP-3 [P56N, G58T K94N, E96T, Q126N, R138T] (SEQ ID NO:21) (protein)
chain: CTCSPSHPQDAFCNSDIVIRAKVVGKKLVKEGNFTTLVYTIKQMKMYRGFTKMPHVQYIHTEASESLCGLNLTVNKYQYLLTGRVYDGKMYTGLCNFVERWDNLTLSQRKGLNYTYHLGCNCKIKSCYYLPCFVTSKNECLWTDMLSNFGYPGYQSKHYACIRQKGGYCSWYRGWAPPDKSIINATDP
modifications: 4 engineered N-linked glycosylation sites (# EG, Table 2)
B10: TIMP-3 [K45N, V47T, K94N, E96T, D110N, K112T, G173T] (SEQ ID NO:10) (protein)
chain: CTCSPSHPQDAFCNSDIVIRANVTGKKLVKEGPFGTLVYTIKQMKMYRGFTKMPHVQYIHTEASESLCGLNLTVNKYQYLLTGRVYNGTMYTGLCNFVERWDQLTLSQRKGLNYRYHLGCNCKIKSCYYLPCFVTSKNECLWTDMLSNFTYPGYQSKHYACIRQKGGYCSWYRGWAPPDKSIINATDP
modifications: 4 engineered N-linked glycosylation sites (# EG, Table 2)
B11: TIMP-3 [K45S, F57N, K94N, E96T, D110N, K112T, R138T] (SEQ ID NO:12) (protein)
chain: CTCSPSHPQDAFCNSDIVIRASVVGKKLVKEGPNGTLVYTIKQMKMYRGFTKMPHVQYIHTEASESLCGLNLTVNKYQYLLTGRVYNGTMYTGLCNFVERWDQLTLSQRKGLNYTYHLGCNCKIKSCYYLPCFVTSKNECLWTDMLSNFGYPGYQSKHYACIRQKGGYCSWYRGWAPPDKSIINATDP
modifications: 4 engineered N-linked glycosylation sites (# EG, Table 2)
B12: TIMP-3 [P56N, G58T, H78N, Q80T, K94N, E96T, R138T] (SEQ ID NO:20) (protein)
chain: CTCSPSHPQDAFCNSDIVIRAKVVGKKLVKEGNFTTLVYTIKQMKMYRGFTKMPNVTYIHTEASESLCGLNLTVNKYQYLLTGRVYDGKMYTGLCNFVERWDQLTLSQRKGLNYTYHLGCNCKIKSCYYLPCFVTSKNECLWTDMLSNFGYPGYQSKHYACIRQKGGYCSWYRGWAPPDKSIINATDP
modifications: 4 engineered N-linked glycosylation sites (# EG, Table 2)
B13: TIMP-3 [H78N, Q80T, K94N, E96T, D110N, K112T, R138T] (SEQ ID NO:26) fused to Fc (Fc fusion, not shown: a dimerising Fc or GST)
chain: CTCSPSHPQDAFCNSDIVIRAKVVGKKLVKEGPFGTLVYTIKQMKMYRGFTKMPNVTYIHTEASESLCGLNLTVNKYQYLLTGRVYNGTMYTGLCNFVERWDQLTLSQRKGLNYTYHLGCNCKIKSCYYLPCFVTSKNECLWTDMLSNFGYPGYQSKHYACIRQKGGYCSWYRGWAPPDKSIINATDP
B14: TIMP-3 [K45N, V47T, F57N, K94N, E96T, R138T] (SEQ ID NO:7) (protein)
chain: CTCSPSHPQDAFCNSDIVIRANVTGKKLVKEGPNGTLVYTIKQMKMYRGFTKMPHVQYIHTEASESLCGLNLTVNKYQYLLTGRVYDGKMYTGLCNFVERWDQLTLSQRKGLNYTYHLGCNCKIKSCYYLPCFVTSKNECLWTDMLSNFGYPGYQSKHYACIRQKGGYCSWYRGWAPPDKSIINATDP
modifications: 4 engineered N-linked glycosylation sites (# EG, Table 2)

Experiments:
Test in all cases: cell-based or functional assay
MMP2 [1] = target: T1, MMP2
MMP9 [2] = target: T2, MMP9 (human, UniProt P14780 107-457, limits assumed)
T2 sequence (P14780 107-457 limits assumed): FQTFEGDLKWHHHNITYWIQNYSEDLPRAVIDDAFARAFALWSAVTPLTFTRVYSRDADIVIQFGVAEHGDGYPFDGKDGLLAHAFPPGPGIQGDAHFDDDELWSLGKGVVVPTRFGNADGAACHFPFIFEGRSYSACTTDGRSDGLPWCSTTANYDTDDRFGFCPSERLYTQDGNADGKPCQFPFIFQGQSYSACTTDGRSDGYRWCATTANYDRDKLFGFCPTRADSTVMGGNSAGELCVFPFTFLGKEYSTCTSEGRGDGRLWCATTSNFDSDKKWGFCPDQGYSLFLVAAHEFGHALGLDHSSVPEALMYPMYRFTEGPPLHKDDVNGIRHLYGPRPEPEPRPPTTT

MMP2 (human) = MMP2 (human) (UniProt P08253)
MMP9 (human) = MMP9 (human) (UniProt P14780)
Sequence of MMP9 (human) (P14780 107-457 limits assumed): as above

MMP2 [3] = target: T1, MMP2; remark: listed apart in the source
MMP9 [4] = target: T2, MMP9; remark: listed apart in the source
MMP2 [5] = target: T1, MMP2; remark: listed apart in the source
MMP9 [6] = target: T2, MMP9; remark: listed apart in the source
[7] = target: TNF alpha converting enzyme (TACE) (UniProt P78536)
Sequence of TNF alpha converting enzyme (TACE) (P78536 215-671 limits assumed): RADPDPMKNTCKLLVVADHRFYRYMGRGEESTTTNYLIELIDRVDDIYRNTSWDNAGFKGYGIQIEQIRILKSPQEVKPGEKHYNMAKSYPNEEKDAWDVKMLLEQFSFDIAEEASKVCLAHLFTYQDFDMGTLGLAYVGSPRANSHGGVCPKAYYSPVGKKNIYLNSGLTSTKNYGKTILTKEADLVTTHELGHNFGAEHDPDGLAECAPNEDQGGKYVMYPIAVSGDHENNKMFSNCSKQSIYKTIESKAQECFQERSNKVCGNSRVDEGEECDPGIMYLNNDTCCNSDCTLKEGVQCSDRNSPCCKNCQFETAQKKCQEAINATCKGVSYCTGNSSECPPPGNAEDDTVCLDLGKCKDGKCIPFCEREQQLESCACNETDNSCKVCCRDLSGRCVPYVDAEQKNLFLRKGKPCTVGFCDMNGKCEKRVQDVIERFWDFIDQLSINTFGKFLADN

| Molecule | shift in MMP2 inhibitory activity (fold decrease) as compared to wild-type (fold decrease vs wild-type) (MMP2 [3]) | shift in MMP9 inhibitory activity (fold decrease) as compared to wild-type (fold decrease vs wild-type) (MMP9 [4]) | also measured |
| --- | --- | --- | --- |
| TIMP-3 [H78N, Q80T, K94N, E96T, D110N, K112T, R138T] (SEQ ID NO:26) fused to IgG (from UniProt P35625 24-211) | – | – | MMP2 EC50 (inhibition of MMP activity, FRET peptide substrate) (MMP2 [1]): 14 nM; MMP9 EC50 (inhibition of MMP activity, FRET peptide substrate) (MMP9 [2]): 26 nM |
| N-TIMP3 fused to HSA (from UniProt P02768 25-609) | – | – | MMP2 EC50 (inhibition of MMP activity, FRET peptide substrate) (MMP2 (human)): 38.7 nM; MMP9 EC50 (inhibition of MMP activity, FRET peptide substrate) (MMP9 (human)): 36.5 nM |
| TIMP-3 [H78N, Q80T, K94N, E96T, D110N, K112T, R138T] (SEQ ID NO:26) fused to HSA (from UniProt P02768 25-609) | – | – | MMP2 EC50 (inhibition of MMP activity, FRET peptide substrate) (MMP2 (human)): 1.4 nM; MMP9 EC50 (inhibition of MMP activity, FRET peptide substrate) (MMP9 (human)): 5.1 nM |
| B1 | – | – | MMP2 EC50 (inhibition of MMP activity, FRET peptide substrate) (MMP2 [3]): 6.9 nM; MMP9 EC50 (inhibition of MMP activity, FRET peptide substrate) (MMP9 [4]): 1.6 nM |
| B2 | – | – | MMP2 EC50 (inhibition of MMP activity, FRET peptide substrate) (MMP2 [5]): 7.6 nM; MMP9 EC50 (inhibition of MMP activity, FRET peptide substrate) (MMP9 [6]): 1.7 nM |
| B3 | 1 | 9 | – |
| B4 | 3 | 10 | shift in TACE inhibitory activity (fold decrease) as compared to wild-type (fold decrease vs wild-type) [7]: 0.6 |
| B5 | 2 | 20 | – |
| B6 | 5 | 21 | shift in TACE inhibitory activity (fold decrease) as compared to wild-type (fold decrease vs wild-type) [7]: 2 |
| B7 | 2 | 59 | – |
| B8 | 2 | 19 | – |
| B9 | 2 | 22 | – |
| B10 | 2 | 9 | shift in TACE inhibitory activity (fold decrease) as compared to wild-type (fold decrease vs wild-type) [7]: 2 |
| B11 | 3 | 74 | – |
| B12 | 2 | 15 | – |
| B13 | – | – | MMP2 EC50 (inhibition of MMP activity, FRET peptide substrate) (MMP2 [3]): 13.3 nM; MMP9 EC50 (inhibition of MMP activity, FRET peptide substrate) (MMP9 [4]): 32.9 nM |
| B14 | 2 | 38 | – |
